Data from patent US6110695A, “Modulating the interaction of the chemokine, B Lymphocyte Hemoattractant, and its Receptor, BLR1” (The Regents of the University of California, priority 1997, dated 2000).

What was measured:
B cells = assay: Transwell chemotaxis of spleen B cells; type: cell-based, mouse
Method: (§1) FIGS. 1(a)-(g). Chemotactic activity of BLC on leukocyte subtypes. Results are expressed as the percentage of input cells of each subtype migrating to the lower chamber of a Transwell filter. FIG. 1a show migration of B cells; FIG. 1b, CD4+T cells; FIG. 1c, CD8+T cells; FIG. 1d; granulocytes; and FIG. 1e, monocytes/macrophages to BLC. Positive controls are SDF1a (FIGS. 1a, b, c, e) and IL8 (FIG. 1d). […] BLC was added to the upper or lower chamber of the apparatus as indicated. […] Data points with error bars represent the mean 1 s.d. for triplicates; individual data points are shown for duplicates. Each experiment was performed a minimum of two times.
(§2) To test this possibility, chemotaxis assays were performed with lymphocytes from mouse spleen and baculovirus-expressed BLC estimated to bc greater than 95% pure by silver staining. […] An alternative possibility is that high potency is not rcquired for a chemokine that is expressed constitutively within lymphoid tissues.
(§3) Chemotaxis. Lymphocytes and macrophages were obtained from spleens of C57BL/6 mice. For macrophage chemotaxis, B cells were depleted by passage over a MACS column (Milteny Biotec, Auburn, Calif.) after incubation with biotinylated anti-B220 antibodies and streptavidin-coated magnetic beads. Granulocytes were obtained from mouse bone marrow suspensions. Mouse BLR1 transfected Jurkat cells were obtained by transfection with pREP4 containing the mouse BLR1 coding region (16), isolated by RT-PCR from mouse spleen RNA, and an amino terminal prolactin leader sequence and FLAG epitope (23). Positive clones were identified using the anti-FLAG antibody M1 (Kodak). Chemotaxis assays were performed as previously described (15) and subsets of migrating cells were identified by flow cytometry using antibodies specific for B220, CD4, CD8 (Pharmingen, San Diego, Calif.) and Mac-1 (Caltag, South San Francisco, Calif.). Granulocytes were identified by their characteristic large side scatter profile. In some experiments, cells were preincubated with 100 ng/ml pertussis toxin (List Biol. Labs, Campbell, Calif.) for 2 hrs at 37° C. IL-8 (R&D Systems, Minneapolis, Minn.) and synthetic human SDF1 a (N33A) synthesized by native chemical ligation (Gryphon Sciences, South San Francisco) were used as positive controls. SDF1a (N33A) has identical activity to native human and mouse SDF1a (24, 25).

CCR2 = assay: Calcium flux in 293 cells transfected with CCR2; type: cell-based
Method: (§4) We therefore tested whether BLC could signal through BLR1. […] Using BLR1 transfected 300-19 pre-B cells a more complete dose response curve was obtained showing that the response to BLC is saturable (FIG. 2e). […] We next tested the ability of BLC to stimulate chemotaxis through BLR1.
(§5) Calcium fluorimetry on transfected 293 and 300-19 cells. Native mouse BLR1 was subcloned into pBK-CMV (Stratagene) and used to transfect HEK 293 cells and 300-19 pre-B cells. G418-resistant clones were tested for BLR1 expression using an affinity purified rabbit anti-mouse antiserum that is specific for the BLR1 amino terminus. HEK293 cells expressing CCR1, CCR2 and CXCR2 were from the Cardiovascular Research Institute, UCSF. Ca2+-mobilization studies were performed as described (26) using a Hitachi 4500 spectrometer. Intracellular calcium concentrations were calculated using the Hitachi 4500 Intracellular Cation Measurement program.

mouse BLR1 = assay: Calcium flux in HEK 293 cells stably transfected with mouse BLR1; type: cell-based; settings: HEK 293 cells stably transfected with mouse BLR1, FIG. 2a, b
Excerpt: (§6) FIG. 2(a)-(f). BLR1-mediated calcium mobilization and chemotaxis in response to BLC. HEK 293 cells, stably transfected with the indicated chemokine receptors (FIGS. 2a-d), were loaded with the calcium probe Indo-1 and assayed by spectrofluorimetry for changes in intracellular calcium in response to BLC. FIG. 2a, Calcium flux as a function of BLC concentration (nM). FIG. 2b, Specificity of the response of BLR1 to BLC. FIG. 2c, Lack of response to BLC in CCR1-transfected cells. FIG. 2d, Lack of response to BLC in CXCR2-transfected cells. FIG. 2e, Percentage of maximal calcium flux as a function of BLC concentration in BLR1-transfected 300-19 cells. FIG. 2f, Chemotactic response of BLR1-transfected Jurkat cells to BLC. Results of chemotaxis are expressed as in FIG. 1.
as §4
(§7) Calcium fluorimetry on transfected 293 and 300-19 cells. Native mouse BLR1 was subcloned into pBK-CMV (Stratagene) and used to transfect HEK 293 cells and 300-19 pre-B cells. […] Intracellular calcium concentrations were calculated using the Hitachi 4500 Intracellular Cation Measurement program.

CXCR2 = assay: Calcium flux in 293 cells transfected with CXCR2; type: cell-based; settings: 293 cells transfected with CXCR2, FIG. 2d
Excerpt: as §6, §4, §7

Control transfectants = assay: Calcium flux in control transfectants of 293 and 300-19 cells; type: cell-based; settings: control transfectants of either cell line (293, 300-19)
Method: as §4, §5

CD4 and CD8 T cells = assay: Transwell chemotaxis of spleen CD4 and CD8 T cells; type: cell-based; settings: mouse spleen lymphocytes, FIG. 1b, c
Method: as §1, §2
(§8) Chemotaxis. Lymphocytes and macrophages were obtained from spleens of C57BL/6 mice. For macrophage chemotaxis, B cells were depleted by passage over a MACS column (Milteny Biotec, Auburn, Calif.) after incubation with biotinylated anti-B220 antibodies and streptavidin-coated magnetic beads. Granulocytes were obtained from mouse bone marrow suspensions. […]

BLR1- negative cells = assay: Chemotaxis of BLR1-negative Jurkat cells; type: cell-based
Method: as §4
as §3, with “In some experiments, cells were preincubated with 100 ng/ml pertussis toxin (List Biol. Labs, Campbell, Calif.) for 2 hrs at 37° C. IL-8 (R&D Systems, Minneapolis, Minn.) and synthetic human SDF1 a (N33A) synthesized by native chemical ligation (Gryphon Sciences, South San Francisco) were used as positive controls. SDF1a (N33A) has identical activity to native human and mouse SDF1a (24, 25).” left out

BLR1 [1] = assay: Calcium flux in BLR1 transfected 300-19 pre-B cells; type: cell-based, mouse; settings: FIG. 2e
Excerpt: as §6, §4, §7

CCR1 = assay: Calcium flux in 293 cells transfected with CCR1; type: cell-based; settings: 293 cells transfected with CCR1, FIG. 2c
Excerpt: as §6, §4, §7

granulocytes = assay: Transwell chemotaxis of bone marrow granulocytes; type: cell-based, mouse; settings: FIG. 1d
Method: as §1, §2, §8

[2] = system: spleen monocytes/macrophages; assay: Transwell chemotaxis of spleen monocytes/macrophages; type: cell-based, mouse; settings: FIG. 1e
Method: as §1, §2, §8

BLR1 [3] = assay: Chemotaxis of BLR1 transfected Jurkat T cells; type: cell-based, mouse; settings: Jurkat T cells transfected with BLR1
Excerpt: as §6, §4, §8

pertussis toxin [reference compound]
BLC-induced migration of pertussis toxin pretreated B cells (B cells; preincubated with 100 ng/ml pertussis toxin for 2 hrs at 37° C., FIG. 1g): failed to migrate

B1: BLC: novel CXC chemokine; baculovirus-expressed mouse BLC (SEQ ID NO:2), mature protein starting at isoleucine 22 (protein)
chain: MRLSTATLLLLLASCLSPGHGILEAHYTNLKCRCSGVISTVVGLNIIDRIQVTPPGNGCPKTEVVIWTKMKKVICVNPRAKWLQRLLRHVQSKSLSSTPQAPVSKRRAA
calcium flux (CCR2): failed to stimulate a calcium flux | calcium flux (mouse BLR1): dose dependent calcium flux | calcium flux (CXCR2): failed to stimulate a calcium flux | calcium flux response (Control transfectants): did not respond | potency as a B cell attractant (B cells; baculovirus expressed protein, compared with most chemokines): potency less than that of most chemokines | migration of cells in the absence of a gradient (B cells; cells incubated with BLC in the absence of a gradient, FIG. 1f): failed to migrate | chemotactic response in B cells (B cells; mouse spleen lymphocytes, FIG. 1a): strong chemotactic response | chemotactic activity towards CD4 and CD8 T cells (CD4 and CD8 T cells): limited activity | chemotactic response (BLR1- negative cells): failed to respond | calcium flux dose response (BLR1 [1]): saturable | calcium flux (CCR1): failed to stimulate a calcium flux | chemotactic activity towards granulocytes (granulocytes): no chemotactic activity | chemotactic activity for spleen monocytes/macrophages [2]: weak but reproducible chemotactic activity | chemotactic response (BLR1 [3]): showed a chemotactic response
